Assays:
AUC + SEC = target: the molecule itself; assay: AUC + SEC
SEC = target: the molecule itself; assay: SEC

Protein	stoichiometry N (AUC + SEC)	stoichiometry N (SEC)
Pyrococcus furiosus NurA (Pf NurA), wild type (enzyme, UniProt Q8U1N8 1-451, looked up) MRLLSKQSIERITKILLDELENVRENEQIRNIINSWKPLPSPEKSSIYAVDGSRSVSRLSGTVIYFLSALAVGSGKQLRLSYANAIKSNYGTSDQIVRMQMETLENMLGYLAYRKLEGEKRAILMDGTLTGSLVRPPVYPEDIRSLNVMRALIGESDFENLLNEFLEKLRDHYRKVEEHLEKNGNYDSPILTDNVVEKLRKKYIDTKVIAYGSGKVKVKIPRKALGYSPRVIPIEVLESSRGKSVDELLQELDEEKVELYLGKDDIYDALHMTLSYIEYLYSIDKLLEVKNLAYIAKSFYTKTLARTLGVEIVDTALLDAVIRTLIGHEKEGYLEIEHAVVPPKWSFPDFLLSKFRNIEKLIDKGIHLAYVRFEQGDVIYMLQSTTNIEKILPLILHHKAGGYLRPLQLAHHGVKISYKEARHTLEALINALRNRDPALKIFVKYGRSPLE	2	–
Pf NurA R11A/I12E/S60Y dimeric interface mutant (enzyme, Pyrococcus furiosus) MRLLSKQSIEAETKILLDELENVRENEQIRNIINSWKPLPSPEKSSIYAVDGSRSVSRLYGTVIYFLSALAVGSGKQLRLSYANAIKSNYGTSDQIVRMQMETLENMLGYLAYRKLEGEKRAILMDGTLTGSLVRPPVYPEDIRSLNVMRALIGESDFENLLNEFLEKLRDHYRKVEEHLEKNGNYDSPILTDNVVEKLRKKYIDTKVIAYGSGKVKVKIPRKALGYSPRVIPIEVLESSRGKSVDELLQELDEEKVELYLGKDDIYDALHMTLSYIEYLYSIDKLLEVKNLAYIAKSFYTKTLARTLGVEIVDTALLDAVIRTLIGHEKEGYLEIEHAVVPPKWSFPDFLLSKFRNIEKLIDKGIHLAYVRFEQGDVIYMLQSTTNIEKILPLILHHKAGGYLRPLQLAHHGVKISYKEARHTLEALINALRNRDPALKIFVKYGRSPLE	–	~2
Pf NurA ΔN26 dimeric interface mutant (first 26 residues deleted) (domain or fragment, Pyrococcus furiosus, UniProt Q8U1N8 27-451, looked up) EQIRNIINSWKPLPSPEKSSIYAVDGSRSVSRLSGTVIYFLSALAVGSGKQLRLSYANAIKSNYGTSDQIVRMQMETLENMLGYLAYRKLEGEKRAILMDGTLTGSLVRPPVYPEDIRSLNVMRALIGESDFENLLNEFLEKLRDHYRKVEEHLEKNGNYDSPILTDNVVEKLRKKYIDTKVIAYGSGKVKVKIPRKALGYSPRVIPIEVLESSRGKSVDELLQELDEEKVELYLGKDDIYDALHMTLSYIEYLYSIDKLLEVKNLAYIAKSFYTKTLARTLGVEIVDTALLDAVIRTLIGHEKEGYLEIEHAVVPPKWSFPDFLLSKFRNIEKLIDKGIHLAYVRFEQGDVIYMLQSTTNIEKILPLILHHKAGGYLRPLQLAHHGVKISYKEARHTLEALINALRNRDPALKIFVKYGRSPLE	–	4
